For 14 sequences, protein production results are on record in a protein production outcome set (Wang et al. 2014).
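Also: failed if final PepcDB status was selected cloned or expressed and not failed if soluble or beyond.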

A short description of this data set: label from the status in PepcDB records.
For “MDIEDLQTFVAVADAGGVSAAARRLGISKSIVSRRLLRVEAELGVQLLARTTRGAALTEAGITFRDHAARASAEIDTAKETILPTGELRGRLRVAMPLTFGPTHFAPVLADMARQHPQLHIHTSYSDRFVDLIAEGFDCAIRGAYLQDSNLIAKRVGPIHGKLVASPDYIKAHGSPGTLDELVTHQALMQGTEAWQFMDGDKIVTVQPQGRFKADSATALAAAAAAGLGIAWLPDCITYGYVASGALVPIMTRYPVPPGAAYVVRPPGQHPTRKVRALTEMLTEYFKRNPDVWGLDR”, the protein production result was “failed”. With “MDIKEIDQSSVITPDGQRISFILITPVNMSVLSDEVVAGRISALANILTSIENLQILCLNASQSYEKNKEHLAAQMKTETNEVLAELDRKDIEYLDDIRISMATGREFAFAVRFKKNIGRPQQEQTLKRLLLILLEAGFTARIAEEQELKGILAIYFAQDIYNDYWPDFDGEEILSPAEAKQEKSFLELIAPSIIDFRRQRYYVCGNTQRTVWAVRGYPTTTKDQTIFRELGEKDGVTLHIYTRPVGSYETNKILERAERRNRHMLNNSSRIKEKVEAESNMQDVQLLIENMHRSKEPFLHCAVFIEMAAGNDKALELLQGDVAAILNRHKILYDKLFLQQKEGMISAMPTGQNLFENQFERVLPASSVANMFPFSYSGKTDPQGMYIGRDANGSNIIVNFDQRGQDKTNGHIIILGNSGEGKSFLLKILSCIFRQSRKNLYILDPENEYKELTEALGGTYMDMMTGKYIINPLEPRLWNQEPVSELESPDTPKAFFKPLRINQHIAFLRDFFSAYKPFPTEQLDTLEIMLELLYKEFHITEETDYSRLRSSDYPILTDLYKLMTRELENYEEKAETGLVVYRKETLRELCLGLHGICTGAESVYFNGYTNIPNAKHIDFGVKDMLSTNQSLSNAMYFNILSFMSHKFLTEGDTNICCDELHELLKNRIAISYLLSFIKRGRKRGSNVILASQNVSDFFLPEIVEYTKPLLSIPTHRFLFYPGSCDTEEYKRVLGVSDSEYRVIQNPNRGHCLYSCGNERYHLHVIAPKYKKALFGTAGGALEHHHHHH”, the protein production result is “failed”.

As for “MDIKNSEYRFSPLVIGLHWLTVILIIAVYASMELRGLAPKGALRDAMKSLHYLLGLSVLVIVVIRIGVRIQAGVKPAIQPPMPRWQATLADGMHYALYSFMLAMPLLGWLTLSAAGKPIVLFGLPVPSLIGTDVALSRQLKDVHEALATLGYVLIGLHAMAALLHHYVMRDNTVVRMLPGRRP”, the protein production result is recorded as “not failed”. For “MDIPQAIKYYEQACDLDGDYGCFNAAYFYEYGIGTQKDITQAKTLAKQLREKINLSNINLDKKVSERIIGSVYSNKLEAYRDLSFRPHFIQGLSFYFYAPQSDERKLLSRIGFDSSHLARIAILWAREGDPEVAYQTAKLVSTLYFNNETKTIDIAEALKWLRISAEKGDADSQTLLGFLYEHAGLGLQPDGEKARKWYEMAAQQGNGEALYTLGRMYYSGVLVNVDYDKALYFFKKAYEKKLQEAADYLAQMYFNGQSVDVDCQQSWHYYDNSYIKKMTQRDYLDYCEKDRKRRNDFNQQLPELTLEKYAGLFGRIDNIPLCQIGFVVNTNKLIHVANLRVELILKNDAGVSDERMVAFPPLGLNTLGAEQGMGDSFKSMGYLLMKNGDLCDYHKLTFTVKSATATINGKKVDLLKTDNLHIIQNR”, the protein production result was “failed”. For “MDIRRIVLYMALALIGLSLWNAWQIDYPAKQPVEEKTASQLTSDGHLLPQIIPSNAEQPVTLKAEEKASSGKQLIQVKTDVLDVDIDLKNGDIVKGLLLDYPLSVEDKNKPFPLLQNQASQRYVANSSLFVLDGQTPQSLDFDFTSEKEYYELKPDQNQLIVTLNGKSEDGLDVKKEFVFTKGSYLIEVNYKIANTGNSLWKGYFNTQLLRSSPKEDKSSIFHIGSYTGASFSNPGKNRYQKVSFSDMSKSNLDVDAKGGWIAMQQHYFLSAWVPNADSENKFYTLATDKDYTIGAVSQPITVKPKEDKIVGSKLYIGPEITSVLKGISPSLDLTVDYGILWFLSSLLFSLMKAIYTVVGNWGWSIVLVTVLIKLAFYRLSATSYKSMASMRKLQPKLQALRERYGDDKAKISQATMELYKQEKVNPLGGCLPILIQIPVFIALYWVLLESVELRQAPFIFWINDLASADPYHVLPLIMGATMLIQQKLNPAPADPMQAKVMMFLPILFTGLFWNFPSGLVLYWIVNNTLSILQQWYITRKYSDEKPAKKVVATAK”, the protein production entry was “failed”.

On to “MDISGHPKTRTRTIFDEVDEPVWFCCVLPIWVGEEMASGWGITGNKGRCYDFWMDFSECMSHCREPKDCTLLREDYLECLHHSKEFQRRNRIYKEEQRKLRAASRKGEEAGDGTHNHH”, for which the protein production result was “failed”. The entry for “MDKAATPWLRYLEELRPHLQGRDHRGRKGSLRWLEALMAERGGRAGTVRNILYKDLGSPEEKERLYRILADLYREAGLKPPPPPAELFLKSARKVLGRDKRRIFRHFLRELEAGRRPQVVVVGGAATGKGVLLSALRQALAAFPGKTPFVLNLGGELAQALIPLAEELGVEAETLLSQLSPTQPYILQGALQQEFLAALAQALNRAGRPLLLRAEAQGTLEGLPLRGPDGGQRGLSAWLEPFLRSLEIPYLAALTEPPPTLPYQPLSPPSREEARRFVRERLPHLPPERLEALVNQAGRNFGELSRLVLLEAAKHDPETPLQDDPALRPLLEALAAFSPEADPAFPAALLERALNRPLERLSQAEKALLEWVGDGLVRPSLRSLLPQEAPRELHRLALEFFPRENLFRRLYHARKAGERRILLDLLTEDPARLALLPGLWQEARSWPKEDREALAAALVRYRAVLGQYAHPEVEEALALLAQAEDPRLRASARIKAAEAKADAGLYKEAEALLPPEEEFPLLDETARAEGLLVRAAVERWKGDYEKAARYAERAAELSVAPFLKDRVQLWRGLVAKDLGRYEEALTALAQVGHDPLLLGRARYQMGDLLMRLGSPEARARMEEGLKALEEAGAPQDEVARVRARYATLLRRLGLYPEAEAAIRRALEEALDPFTRARVESEAGILQAAQGRPLEALALLSRAEAYFRTTGERPKEARYRHLRTLFRLAAAYLLLETGTPYRPPLLGGLKAPEAERLLWDLLAKIPEEATDRYTALRLDAESLLALLLPPKEARERLRPFLGLANPYLRAQARLGYAEALLREGAYGEALAQTVALPPLLDPGLKAQAKATEVLALLALGEEEAAWQKLVEAKQSGLPEPFRLQLGRAVGRAHPGLAARLPPTPLAPPEALGLHLANPD” is “failed”; for “MDKFSDMTMFVSIVKHQGLAAAGRELGLSPATMTARLQALEERYRVKLLNRSTRHVSLTDAGELYYKASLEILDNVNETENLILNGVKEVKGALRVAAPKDIGKQYILPILSEFCEKYPDVVPYLYLNDDVSNIAESGIDIVVRYGELADSSLISRRLSSSHRVLCASPDYLAKYGTPLTPQDLINHHCLAMVRSHEELKTWHFQGSDKKNVITVLPKRFSDDGEVVRYWALEGAGIALKSILDVQDDINNRRLVTVLNGYMANFNTSTSVSSADLNVVYMSKKYQPKRIRLFLDFLLERFETMKNGGK” it is “not failed”; for “MDKKENTVVLFPQLSERYIDEGFLALKERKFEDALRCFEILRQYNAETEQTELASVICLLELKRMEEAKDKCEQLLKTGVVLFGDILETYVTILVQTNDYEGVIETVEKVLQTKDIMPDQKEKLAQLALFAEGMLNEGDASLVDSNFELDEFTNEIFGENFGQKLRAIQRLSLKDLDLALPVLKKFLIEEEQHPYLKTSILYKMIESQVEEEIEVEKFGNTIKVIPAFTGHNEEQSNNIIHKLSSRLEQNYPDIFEAMVTYWKELQISVFPFALLMDKEEIWSAVLERIGRKRFGLAIDEEELMAAYNIELEEFHIAYQWLLRVEREGYLPV” it is “failed”.

Take “MDKKKHSLKAPVMTHRAFLALAIPLIFSAMTTPLIGAVDTAIVGHLQDPALIGGVAVGALIFNTMYWLFGFLRVSTSGFSAQALGRKKEDDIMLAFVRPFLLAMFVGLSFILLQHPIKSASLLIISPPEHVGLFAEQYVAIRIWGAPFALISYVVIGWLMGIGRIRGAVTIQIGTNLLNVALDFLFVYWMQWGIGGVAAASLIAEVTGAVAGCLFVLRCYSFSVFSSLTQVLDKRPILHMLTVNRDLFIRTICLLTVLTTFTSIGARFGEVSLAANAILLQLHYLMAYMFDGVANAASIVVGRSVGARDRSLFERVVRLDIVWSSVICLWLVCTLGLMKEPIIALFTSIPAVQAETLQLFGWIMLFPIAGFWGLQLHGMFSGATVARPIRQSMIIAMLVFLISCWLFVPLWGNNGLWLSFIVFTIARSMTLHLSYPALQRLFHDKERSIGA”: the protein production result is “failed”. Consider “MDKLKVAELFAGVGGFRLGLENTKEKIFDVTWANQWEPSKKIQHAFDCYNSRFITGEHVNKDIALISDEEIANTKADMVVGGFPCQDYSVARSLSGELGIQGKKGVLFWQIIRFIQNTYPKYLLLENVDRLLKSPSSQRGRDFGVMLSTLNELGYNVEWRVINAADYGNAQRRRRVFIFGYKQDLEHHHHHH”, for which the protein production entry was “not failed”. For the sequence “MDKLKVAELFAGVGGFRLGLENTKEKIFDVTWANQWEPSKKIQHAFDCYNSRFITGEHVNKDIALISDEEIANTKADMVVGGFPCQDYSVARSLSGELGIQGKKGVLFWQIIRFIQNTYPKYLLLENVDRLLKSPSSQRGRDFGVMLSTLNELGYNVEWRVINAADYGNAQRRRRVFIFGYKQDLNYADLIDKYSLEDIVYNSGMFAKAFPIEKEPNKNRVNSSTITNDIVDISNNFSFQFYNSGIMKNGEILTIDTIPIFEKPTPLKEIVLKEVDDKYSLADEKIEKFKYLRGPKKIKRTSKDGHEYYFSEGGMSEFDSLDLPARTMLTSEASVNRSSHFLSIGGKFRTLTPIEAERLNGFPDNWTDTMPDRMRYFCMGNALVVPLVTRIGNQIEKIEKITNDDFSQLKLF”, the protein production result is recorded as “failed”.

Consider “MDKLRVPFHRPYVNLRRCSERLVMHIHILGICGTFMGSLAVLAKESGHRVTGSDANVYPPMSTQLQAQGIELTQGYDPAQLDPAPDLVVVGNALSRGNPAVEYVLNKGLPYVSGPQWLADHVLQDRWVLAVAGTHGKTTTSSMLAWVLEHAGMSPGFLIGGIPQNFAVSARLGDTPFFVVEADEYDSAFFDKRSKFVHYRPRTAILNNLEFDHADIFPDLPAIERQFHHLVRTIPSEGLVIHPTTEPALSRVIEMGCWTPVQTTGDGGQWQARLLSEDGSRFEVLFEGELQGAVEWDMTGQHNVANALATLAAARHVGVVPSLGVQALSAFKSVKRRMEKVAEVRGITIYDDFAHHPTAIATTLDGLRKKIGDAPIIAVIEPRSNSMKLGAHRDGLPESVSQADQVVWYAPPNLGWDLAATVAGGSVPSTVCDSLEAIIARVHSQVQPGTHIVIMSNGGFGGLHGKLAEALK”, for which the protein production entry is reported as “failed”. As for “MDKNIFNILKKYFGYSSFRRGQENIIQSILDGNDTFAIMPTGGGKSICYQVPALYMKGLTIVITPLISLMKDQVDTLRENGVNASYINSTLSSKETNDILMSALSGHLKILYVAPERLEQDYFRNAIKDLTISMVAIDEAHCVSQWGHDFRVSYKRIVPFINIFDKRPIVAAFTATATDEVKKDIINLLELKEPNCFITGFDRDNLFFSIVKNENKFDFITKYLSKHKELSGIIYAATRKEVDSLHQKLISQGYSVGKYHAGMGDKERSESQDLFLYDETKLMIATNAFGMGIDKSNVRFVIHYNMPKNLESYYQEAGRAGRDGEKSECIILFSGQDIQIQKFLIKQSIPSFDRQRIELKKLNDMINYCMTTSCLRKYILNYFGENYEVENCDNCINCTGNVEIVDITLEAQKIISCIYRMGQNFGVTMIAEVLKGSKNSKVLRFNFDKLSTYGIMKDCTLKQITNLINTLIADGYLYLSDSEYATVKMSQKSIEVLKGYKKVVQKIHIVEELSLSTDNTLFEILKALRLEIARRENVPPYIIFSDSVLSEMCKYYPKDKNSMLQIKGVGEIKYNKYGEIFEEKIREYIKETNLTPEDNNKGTLKVPELLSKKIPTHIETFNLYKKGITIADMAKIRNLSIPTIQEHILKCANEGLNVNLDAYIPAEYKDLIYEKIRILGTSKLRPIKDALPDDVDYMAIKAAICKYTSKNKAI”, the protein production entry was “failed”.
